The nanobody polyreactivity screen of Harvey et al. (2022)

Assay: yeast display, Sf9 membrane polyspecificity reagent, FACS + sequencing; frameworks hold sequencing errors
Summary of the method: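 After 36–48 hours of galactose induction, yeast (Saccharomyces cerevisiae BJ5465) displaying a synthetic nanobody library were stained at 4 °C for 1 hour with 10% biotinylated, detergent-solubilized Sf9 membrane reagent. Streptavidin microbeads enriched the stained cells before FACS sorting into low and high (top ~1%) gates on anti-HA and streptavidin fluorescence. Each clone's polyreactivity label reflects its gate of origin.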

Sequence | polyreactivity (PSR sort gate)
HVQLVESGGGLVQAGGRLRLSCAASASIFDSNAMGWYRQAPGKERELVADIRGIGGSTYYADSVKGRFTISRDNAKNTVYLQMNSLKPEDTAVYYCNTSTLGGYYWGQGTQVTVSS | low polyreactivity
QVHLQESGVVLMQARGNLRMSCAASGYISTQYHMDWYRQAPGKERELVARIDYGAITNYADSVKGRFTIRRDNAKNTVYLQMTSLKPEDTAVYYCAVYSGDDYYHDYWGHGTQVTVSS | low polyreactivity
QVQLQESGGGLVQAGGSLRLSCAASGTISVHASMGWYRQAPGKERELVAGITDGANTYYADSVKGRFTISRDNSKNTVYMQKNSLKPEDTAVYYCAAYYGTEVHFTYWGQGTQVTVSS | low polyreactivity
QVQLVESGGGLVQAGGSLRLSCAASGRIFTIYAMGWYRQAPGKERELVARITRGTSTYADSVKGRFTISRDNAKNTVYLQMNSLKPEDTAVYYCAADPTDTSLGDYWGQGTQVTVSS | high polyreactivity
QVQLVESGGGLVQAGASLRLSCSASGRTFLNYTMGWSRHAPGTERELVAAIRYRDGSTYYADSVKGRFTISRDNAKNTVYLQMNSLKPVDTAVYYCNTRITQVGDYIYDYWGQGTQVTVSS | low polyreactivity
QVQLVESGGGLVQAGGSLRLSCAASGSIFEGYGMGWYRQAPGKERELVASISTGDSTKYADSVKGRFTISRDNAKNTVYLQMNSLKPEDTAVYYCNAPYFYLPHKYDYWGQGTQVTVSS | low polyreactivity
QVQLVESGGGLVQAGGSLRLSCAASGRTLAPNAMGWYRQAPGKERELVSTITRGGTTNYADSVKGRFTISRDNAKNTVYLQMNSLKPEDTAVYYCAKAHYLGYYQRYDYWGQGTQVTVSS | low polyreactivity
QVQLVESGGGLVQAGGSLRLSCAASGSICYGYTMGWYRQAPGKEREFVAAITGSGGSTYYADSVKGRFTISRDNAKNTVYLQMNSLKPEDTAVYYCAARRYVNRRYDYWGQGTQVTVSS | high polyreactivity
QVQLVESGGGLVQAGGSLRLSCAASGFIFSSNAMGWYRQAPGKEREFVAAISFRGGTTYYADSVKGRFTISRDNAKNTVYLQMKSLKPEDTAVYYCNAVRWRSGRWWWYDYWGQGTQVTVSS | low polyreactivity
QVQLQESGGGLVQAGGSLRLSCAASCTISQEDWMGWYRQAPGKEREFVAAIGLGSNTNYAESLKGRFTISRDNAKKTVYLQLHSLKPEDTAVYYCAVSVWQYSDHVYGGQGTQVTVSS | low polyreactivity
QVQLVESGGGLVQAGGSLRLSCAASGSTLFYYAMGCYRQAPGKERELVAAITQNGGGTYYADSVKGRFTISRDNAKNTVYLQMNSLKPEDTAVYYCAVTQEYIADHWYGYWGQGTQVTVSS | low polyreactivity
QVQLVESGGGLVQAGGSLRLSCAASGSTFPRYAMGWYRQAPGKERELVAAISKSGTITSYADSVKGRFTISRDNAKNTVYLQMNSLKPEDTAVYYCAKGRYWPYDYWGQGTQVTVSS | high polyreactivity
QVQLVESGGGLVQAGGSLRLSCAASGNTFNYYTMGWYRQEPGKERELVAAIRSGGRTYYADSVKGRFTISRDNAKNTVYLLMNSLIPEDTAVYDCAAVAVTYRYDYWGQGTQVTVSS | high polyreactivity
QVQLVESRGGLVQAGGSLRLSCPDSGITLSEYAMGWYRQAPGKERELVATISWRGGTTYYADSVKGLFTISRDNAKNTVSLQMIILNPEDTAVYYCAASWWSFGCYTWKAYDYWGQGTQVTVSS | high polyreactivity
QVQLVESGGGLVQAGGSLRLSCAASGSISYFNDMGWYRQAPGKERELVAAIRDSGGITYADSVKGRFTISRDNAKNTVYLQMNSLKPEDTAVYYCDKDAGLQKYHHDYWGQGTQVTVSS | low polyreactivity
QVQLVESGGGLVQAGGSLRLSCAASGRTFKYNAMGWYRQAPGKEREFVAAISSRGGSTYYADSVKGRFTISRDNAKNTVYLQMNSLKPEDTAVYYCNKLYGTRWSGLADDYWGQGTQVTVSS | high polyreactivity
QVQLVESGGGLVQAGGSLRLSCDASGRTFSSNAMGWYRQAHGKERELVAAISFRGGRTFYADSVKGRFTISRDNAKNTVYLQMNSLKPEDTAVYYCNAVPETRTYDYWGQGTQVTVSS | high polyreactivity
QVQLVESGGGLVQAGGSLRLTCAASGITFGRNVMGWYRQAPGKEMELVATISGSAGYTYYADSVKGRFTISRDYAKNTVYFQMNSLKPEDTSVYYCAARQRKARQIVLLDYWGQGTKVTVSS | high polyreactivity
QVQLVESGGGLVQAGGSLRLSCAATGSIFRRYAMGWYGQAPGKERELVAAISWSGGSTYYADSVKGRFTISRDNAKNTVYLQMNSLKPEDTAVYYCAARHRQQKLDYWGQGTQVTVSS | high polyreactivity
QVQLVESGGGLVQAGGSLRLSCAASGNILYFYDMGRYRQAPGKERELVAVITGGGGSTYYADSVKGRYTISRDNAKNTVYLQMNRLKPEDTAVYYWAALPWFPDEEYDYWGHGTQVTVSS | high polyreactivity
QVQLVESGGGLVQAGGSLRLSCAASGSTFPRYALGWYRQAPGKERELVAAISRSGGSTYYADSVKGRFTISRDNAKNTVYLQMNSLKPEDTAVYYCAARYERGSYKYDYWGQGTQVTVSS | high polyreactivity
QVQLVESGGGLVQAGGSLRLSCAASGITFNDYTMGWYRQGPGKERELVAVNTKTGSRTYYADSVKGRFTISRDNAKNTVYLQMNSLKPEDTAVYYCNALYYIHYYQGYGYWGQGTQVTVSS | high polyreactivity

Sequence | polyreactivity (PSR sort gate)
QVQLVESGGGLVQAGGSLRLSCAASGSIFSIYAMGWYRQAPGKERELVAAIDSGTSTTYADSVKGRFTISRDNAKNTVYLQMKSLKPEDTAVYYCAAALYSDVAAVATYGYYWGQGTQVTVSS | low polyreactivity
QVQLVESAGGLVQAGGSLRLICAASGGTFVGYAMGWYRQAPGKERELVAAISRRGGSTYYADSVKGRFTISRDNAKNTVYLQMNSLKPEDTAVYYCAKSEHRSVPQYDYWGQGTQVTVSS | high polyreactivity
QVQLVESGGGLVQAGGSLRLSCAASGSTFYRYMGWYRQAPGKERELVADISSSGDTYYADSVKGRFTISRDNAKNTVYLQMNSLKPEDTAVYYCAADVSVGYWWSYSMDYWGQGTQVTVSS | high polyreactivity
QVQLVESWGGLVQAGGSLRLSCAASGSIFYVNDMGWYRQAPGKERELVAAISSTGSTKYADSVKGRFTISRDNAKNTVYLQMNSLKPEDTAVSYCAKEPGHRFEFDYWGQGTQVTVSS | low polyreactivity
QVQLVESGGGLVQAGGSLRLSCAASGSIFTGYAMGWYRQAPGKERELVAAISNSGTATYYADSVKGRFTISRDNAKNTVYLQMNSLKPEDSAVYYCNTVGHRWLSDDDYWGQGTQVTVSS | low polyreactivity
QVQLVESGGGLVQAGGSLRLSCAASGFTFSYYAMGWYRQAPGKERELVAAISWNGGSTYYADSVKGRFTISRDNAKNTVYLQMNSLKPEDTAVNYCAADSLLYYYDTGYEYWGQGTQVTVSS | high polyreactivity
QVQLVESGGGLVQAGGSLRLSCAASGITFSFYAMGWYRQAPGKERELVATIDSGGSTNYADSVKGRFTISRDNAKNTVYLQMNSLKPEDTAVYYCAVVFHYSTIGGGYRPRMYYWGQGTQVTVSS | low polyreactivity
QVQLVESGGGLVQAGGSLRLSCAASGSTFHRYVMGWYRQAPGKERELVAVINSTGGSTYYADSVKGRFTISRDNAKNTVYLQMNSLKPEDNAVYYCARVTRRGPGYTTLYSRYDYWGQGTQVTVSS | low polyreactivity
QVQLVESGGGLVQAGGSLRLSCAASGRTFYLYARGWYRQAPGKERELVAAITRSGGSTYYADSVKGRFTISRDNAKNTVYLQMNSLKPEDTAVYYCAAYSYYGAGDRAYDYWGQGTQVTVSS | high polyreactivity
QVQLVESGGGLVQAVGSLRLSCAASGRTFGTYAMGWYRQAPGKERELVAAISSGGSTYADSVKGRFTISRDNAKNTVYLQMNSLKPEDTAVYYCNNVRRKQSVLTFDYWGQGTQVTVSS | high polyreactivity
QVQLVESGGGLVQAGGSLRLSCAASGRTFYRNAMGWYRQAPGKERELVAGITRGGRTYYADSVKGRFTISRDNAKNTVYLQMNSLKPEDTAVYYCAKGRSWQIYYKGGIKGGYWGQGTQVTVSS | low polyreactivity
QVQLVESGGGLVQAGGSLRLSCAASGLTFDWYTKGWSRQAPGKERELVATINSGGSTDYADSVKGRFTISRDNAKNTVYLQLNSLKPEDTAVYYCNAEYGYSGVGDDYWGQGTQVTVSS | low polyreactivity
QVQLVESGGGLVQAGGSLRLSCAASGRIFWANAMGWYRQAPGKERELVAAINRRTGITYYADSVKGRFTISRDNAKNTVYLQMNSLNPEDTAVYYCAAARGKDGYSGQGTQVTVSS | high polyreactivity
QVQLVESGGGLVQAGGSLRLTCAASGRTFYLYAMGWYRQAPGKERELVAAITTSGGSTYYADSVKGRFTFSRDNAKNTVYLQMNSLKPEDTAVSYCNTDLSSTKFDYWGQGTQVTVSS | low polyreactivity
QVQLVESGGGLVQAGGSLRLSCAASGSIFGSYAMGWYRQAPGKERELVAGIRSGGSTYYADSVKGRFTISRDNAKNTVYLQMNSLKPEDTAVYYCAGHEEYWGQGTQVTVSS | low polyreactivity
QVQLVESWGGLVQAGGSLRLSCAASGNTIIRYAMGWYSQAPGKERELVAAISRSGGRTYYADSVKGRFTISRDNAKNTVYLQMNSLKPEDTAVYYCAAKIYIPRGYDYWGQGTQVTVSS | high polyreactivity
QVQLVESGGGLVQAGGSLRLSCAASGRIFSYYAMGWYRQAPGKEREFVATITYAGGSTYYADSVKGRFTISRDNAKNTVYFQMNSLKPEDTAVYYCAARGYSYRGWRMDYWGQGTQVTVSS | high polyreactivity
QVQLVESGGGLVQAGGSLRLSCAASGRTFRGNAMGWYRQAPGKERELVAAISWSGGRTYYADSVKGRFTISRDNAKNTVYLQMNSLKPEDTAVYYCAAGVPKNGQAGYDYWGQGTQVTVSS | high polyreactivity
QVQLVESGGGLVQAGGSLRLSCAASGSTFLLNAMGWYRQAPGKERELVAAITWNGGSTYYADSVKGRFTISRDNAKNTVYLQMNSLKPEDTAVYYCAADWSWQWRYGYDYWGQGTQVTVSS | low polyreactivity
QVQLVESGGGLVQAGGSLRLSCASSGSTFPYNAMGWYRQAPGKERELVAAITSSGRTNYADSVKGRFTISRDNAKNTVYLQMNSLKPEDTAVYYCAAGRWYAHRVDYWGQGTQVTVSS | low polyreactivity
QVQLVETGGGLVQAGGSLRLSCAPSGSIFRYNAMGWYRQAPGKEREFVAAISQSGSRTYYADSVKGRFTISRDNAKNTVYLQMNSLKPEDTAVYYCAKKYYGVKFYWGQGTQVTVSS | low polyreactivity
